The record followed here is article PMC8910618, “Cognate DNA Recognition by Engrailed Homeodomain Involves A Conformational Change Controlled via An Electrostatic-Spring-Loaded Latch”.

Settings in all cases: protein: recombinant; tags: none (untagged, or SUMO/His tag cleaved by ULP1); 15N or 13C,15N labelled for NMR; 5' overhang 1 nt on each strand, 20 bp
Series [1] deals with T1, engrailed homeodomain (enHD) (UniProt P02836 456-509).
T1 sequence: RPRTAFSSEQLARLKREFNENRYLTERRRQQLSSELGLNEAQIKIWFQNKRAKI
The series is described as follows: NMR titration (1H-15N HSQC, W501 and A460); 50 mM NaCl, 25 mM phosphate pH 6.8, 298 K; stated as sub-uM, too tight to evaluate Kd; NMR: 200 uM enHD, 298 K, 5% D2O; 20 mM MES pH 6 + 25 mM NaCl; 20 mM acetate pH 4 + 300 or 700 mM NaCl; 25 mM phosphate pH 6.8 + 50 mM NaCl. CD: 15 uM enHD and DNA, 20 mM MES pH 6, 25 mM NaCl, room temperature.

Series [2] concerns the target T1, engrailed homeodomain (enHD). The series is described as follows: NMR titration (1H-15N HSQC, R456 side-chain NH); 700 mM NaCl, 20 mM acetate pH 4, 298 K; NMR: 200 uM enHD, 298 K, 5% D2O; 20 mM MES pH 6 + 25 mM NaCl; 20 mM acetate pH 4 + 300 or 700 mM NaCl; 25 mM phosphate pH 6.8 + 50 mM NaCl. CD: 15 uM enHD and DNA, 20 mM MES pH 6, 25 mM NaCl, room temperature.
The target is the same in series [3]. Put plainly: NMR titration (1H-15N HSQC, A460 and A507); 300 mM NaCl, 20 mM acetate pH 4, 298 K; NMR: 200 uM enHD, 298 K, 5% D2O; 20 mM MES pH 6 + 25 mM NaCl; 20 mM acetate pH 4 + 300 or 700 mM NaCl; 25 mM phosphate pH 6.8 + 50 mM NaCl. CD: 15 uM enHD and DNA, 20 mM MES pH 6, 25 mM NaCl, room temperature.

What is called Kd is the constant that tells how readily two partners part at equilibrium.

B1: cognate DNA (same as X-ray structure) (dsDNA)
DNA 1: TTTTGCCATGTAATTACCTAA
DNA 2: ATTAGGTAATTACATGGCAAA
Consider B1, for which the Kd is under 1000 nM in series [1], 170 ± 2 µM in series [2] and 95 ± 20 µM in series [3].
